Assay results as given in publication PMC11077774, “Molecular mechanism for recognition of the cargo adapter Rab6^GTP by the dynein adapter BicD2” (Life Science Alliance, 2024).

Experiments:
Experiment in all cases: pull-down; GST-tagged Rab6^GTP (WT = Q72L, or mutant) held on glutathione Sepharose columns, 1 mM GTP and 2 mM MgCl2 added for 30 min; purified BicD2-CTD added and incubated 30 min; washed, eluted with glutathione; SDS-PAGE (16%), Coomassie, band intensities quantified with ImageJ, ratio of bound BicD2-CTD/Rab6^GTP normalised to WT = 1; three experiments
Conditions in all cases: both partners purified
[1] = target: T1, GST-tagged Rab6^GTP (Rab6a/Q72L) Q65A mutant (human, UniProt P20340 1-208, Q72L | Q65A)
T1 construct: Rab6a, human, full length, Q72L background with Q65A; Loaded with 1 mM GTP and 2 mM MgCl2 on the column; source: E. coli BL20(DE3)-RIL, purified by glutathione Sepharose, washed but not eluted; not shown: GST, N-terminal, kept
T1 sequence (P20340 whole entry Q65A/Q72L): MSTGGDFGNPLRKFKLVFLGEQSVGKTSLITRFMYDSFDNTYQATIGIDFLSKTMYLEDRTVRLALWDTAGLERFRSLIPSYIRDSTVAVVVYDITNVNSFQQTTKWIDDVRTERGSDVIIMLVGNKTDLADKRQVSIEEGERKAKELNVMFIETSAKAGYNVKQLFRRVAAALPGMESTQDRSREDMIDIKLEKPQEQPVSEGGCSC

[2] = target: T2, full-length GTP-bound Rab6a/Q72L with N-terminal GST tag (human, UniProt P20340 1-208, Q72L)
T2 construct: pGEX6P1 vector, PreScission site after GST; Construct described in Gibson et al, 2023; also called Rab6^GTP WT; Rab6^GTP; source: E. coli BL20(DE3)-RIL, purified by glutathione Sepharose, washed but not eluted; not shown: GST, N-terminal, kept
T2 sequence (P20340 whole entry Q72L): as the sequence (P20340 whole entry Q65A/Q72L) above, with A65Q counted along it

[3] = target: T3, GST-tagged Rab6^GTP (Rab6a/Q72L) S52A mutant (human, UniProt P20340 1-208, Q72L | S52A)
T3 construct: Rab6a, human, full length, Q72L background with S52A; Loaded with 1 mM GTP and 2 mM MgCl2 on the column; also called phosphonegative mutation S52A; source: E. coli BL20(DE3)-RIL, purified by glutathione Sepharose, washed but not eluted; not shown: GST, N-terminal, kept
T3 sequence (P20340 whole entry S52A/Q72L): as the sequence (P20340 whole entry Q65A/Q72L) above, with S52A, A65Q counted along it

[4] = target: T4, GST-tagged Rab6^GTP (Rab6a/Q72L) K53A mutant (human, UniProt P20340 1-208, Q72L | K53A)
T4 construct: Rab6a, human, full length, Q72L background with K53A; Loaded with 1 mM GTP and 2 mM MgCl2 on the column; source: E. coli BL20(DE3)-RIL, purified by glutathione Sepharose, washed but not eluted; not shown: GST, N-terminal, kept
T4 sequence (P20340 whole entry K53A/Q72L): as the sequence (P20340 whole entry Q65A/Q72L) above, with K53A, A65Q counted along it

Measured: binding result

B1: BicD2-CTD (C-terminal cargo-binding domain of human Bicaudal D2, residues 715-804) (domain or fragment, UniProt Q8TD16 715-804, looked up)
chain: YENEKAMVTETMMKLRNELKALKEDAATFSSLRAMFATRCDEYITQLDEMQRQLAAAEDEKKTLNSLLRMAIQQKLALTQRLELLELDHE
notes: Construct described in Gibson et al, 2022; also called BicD2-CTD WT
binds: all assays above
